From article PMC2683190

Biological target: GST-LIF05 (mutant human LIF, LIFR antagonist, as glutathione-S-transferase fusion protein) (human) (UniProt P15018)
Assay: SPR

Sequence of GST-LIF05 (mutant human LIF, LIFR antagonist, as glutathione-S-transferase fusion protein) (human) (P15018 23-202, change not shown): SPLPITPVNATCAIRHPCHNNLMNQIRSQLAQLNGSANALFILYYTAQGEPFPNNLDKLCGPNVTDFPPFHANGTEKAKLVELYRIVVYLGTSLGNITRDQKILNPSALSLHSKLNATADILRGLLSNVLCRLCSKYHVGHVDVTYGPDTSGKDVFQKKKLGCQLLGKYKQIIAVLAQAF

B1: soluble LIFR (leukemia inhibitory factor receptor) (receptor)
chain: QKKGAPHDLKCVTNNLQVWNCSWKAPSGTGRGTDYEVCIENRSRSCYQLEKTSIKIPALSHGDYEITINSLHDFGSSTSKFTLNEQNVSLIPDTPEILNLSADFSTSTLYLKWNDRGSVFPHRSNVIWEIKVLRKESMELVKLVTHNTTLNGKDTLHHWSWASDMPLECAIHFVEIRCYIDNLHFSGLEEWSDWSPVKNISWIPDSQTKVFPQDKVILVGSDITFCCVSQEKVLSALIGHTNCPLIHLDGENVAIKIRNISVSASSGTNVVFTTEDNIFGTVIFAGYPPDTPQQLNCETHDLKEIICSWNPGRVTALVGPRATSYTLVESFSGKYVRLKRAEAPTNESYQLLFQMLPNQEIYNFTLNAHNPLGRSQSTILVNITEKVYPHTPTSFKVKDINSTAVKLSWHLPGNFAKINFLCEIEIKKSNSVQEQRNVTIKGVENSSYLVALDKLNPYTLYTFRIRCSTETFWKWSKWSNKKQHLTTEASPSKGPDTWREWSSDGKNLIIYWKPLPINEANGKILSYNVSCSSDEETQSLSEIPDPQHKAEIRLDKNDYIISVVAKNSVGSSPPSKIASMEIPNDDLKIEQVVGMGKGILLTWHYDPNMTCDYVIKWCNSSRSEPCLMDWRKVPSNSTETVIESDEFRPGIRYNFFLYGCRNQGYQLLRSMIGYIEELAPIVAPNFTVEDTSADSILVKWEDIPVEELRGFLRGYLFYFGKGERDTSKMRVLESGRSDIKVKNITDISQKTLRIADLQGKTSYHLVLRAYTDGGVGPEKSMYVVTKENS
With B1 the Kd was 4.72 nM, the koff was 0.00265 s⁻¹ and the kon was 562000 M⁻¹ s⁻¹.
